Reference: the supplement of paper PMC10065799, “High-throughput profiling of sequence recognition by tyrosine kinases and SH2 domains using bacterial peptide display” (eLife, 2023)

Assays:
EPHB2 = EPHB2 (UniProt P29323); experiment: phosphorylation enrichment, bacterial display (enrichment ratio); higher = better substrate or ligand; peptides without Tyr show the background
c-Src = experiment: as above
AncSZ = experiment: as above
EPHB1 = EPHB1 (UniProt P54762); experiment: as above
Fyn = Fyn (UniProt P06241); experiment: as above
Hck = Hck (UniProt P08631); experiment: as above
Fes = Fes (UniProt P07332); experiment: as above
Fer (mouse) = experiment: as above
MERTK = MERTK (UniProt Q12866); experiment: as above
FGFR3 = FGFR3 (UniProt P22607); experiment: as above
FGFR1 = FGFR1 (UniProt P11362); experiment: as above
c-Abl (mouse) = experiment: as above
Jak2 = Jak2 (UniProt O60674); experiment: as above
SHP2-C SH2 = experiment: SH2 binding enrichment of the phosphorylated peptide, bacterial display (enrichment ratio); higher = better substrate or ligand; peptides without Tyr show the background
Grb2 SH2 = Grb2 SH2 (UniProt P62993); experiment: as above
c-Src SH2 = experiment: as above
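Wherever SH2 binding enrichment of the phosphorylated peptide, bacterial display is given: peptide library displayed on the E. coli surface as eCPX fusions, selected cells deep-sequenced, score is each peptide's frequency after selection divided by its frequency in the input.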
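Wherever phosphorylation enrichment, bacterial display is given: 11-residue human phosphosite peptides and single-mutation variants displayed on the E. coli surface, counted by deep sequencing, each peptide's frequency after selection divided by its frequency in the unselected input library; frequency after pTyr selection over input frequency; kinase dosed for 20-30% of maximal phosphorylation in three min.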

Chain of EPHB1 (P54762 whole entry, looked up): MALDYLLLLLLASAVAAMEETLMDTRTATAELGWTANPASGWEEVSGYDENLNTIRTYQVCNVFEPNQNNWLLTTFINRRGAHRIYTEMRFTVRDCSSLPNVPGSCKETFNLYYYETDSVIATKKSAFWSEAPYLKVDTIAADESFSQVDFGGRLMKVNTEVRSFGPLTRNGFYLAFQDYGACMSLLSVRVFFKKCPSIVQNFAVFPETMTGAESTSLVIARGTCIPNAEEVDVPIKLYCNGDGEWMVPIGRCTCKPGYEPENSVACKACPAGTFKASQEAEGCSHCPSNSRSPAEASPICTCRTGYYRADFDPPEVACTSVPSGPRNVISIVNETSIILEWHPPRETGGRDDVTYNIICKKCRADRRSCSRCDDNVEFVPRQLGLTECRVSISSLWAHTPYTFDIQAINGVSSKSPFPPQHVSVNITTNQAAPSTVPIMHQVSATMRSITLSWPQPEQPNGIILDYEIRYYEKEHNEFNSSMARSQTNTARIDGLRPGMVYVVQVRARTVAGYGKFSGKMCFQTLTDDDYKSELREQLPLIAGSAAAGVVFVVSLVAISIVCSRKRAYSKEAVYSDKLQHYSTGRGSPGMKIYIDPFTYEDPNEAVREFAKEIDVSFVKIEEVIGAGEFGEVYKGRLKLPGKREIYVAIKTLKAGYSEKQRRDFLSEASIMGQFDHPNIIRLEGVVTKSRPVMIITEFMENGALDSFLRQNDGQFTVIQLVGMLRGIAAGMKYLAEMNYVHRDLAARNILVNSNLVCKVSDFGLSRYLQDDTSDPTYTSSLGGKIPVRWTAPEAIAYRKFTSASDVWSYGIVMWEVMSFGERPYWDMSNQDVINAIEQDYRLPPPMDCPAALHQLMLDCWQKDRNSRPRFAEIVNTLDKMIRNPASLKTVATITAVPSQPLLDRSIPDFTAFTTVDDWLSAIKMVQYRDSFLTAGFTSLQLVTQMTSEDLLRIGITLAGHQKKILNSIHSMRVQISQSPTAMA
Chain of Fes (P07332 whole entry, looked up): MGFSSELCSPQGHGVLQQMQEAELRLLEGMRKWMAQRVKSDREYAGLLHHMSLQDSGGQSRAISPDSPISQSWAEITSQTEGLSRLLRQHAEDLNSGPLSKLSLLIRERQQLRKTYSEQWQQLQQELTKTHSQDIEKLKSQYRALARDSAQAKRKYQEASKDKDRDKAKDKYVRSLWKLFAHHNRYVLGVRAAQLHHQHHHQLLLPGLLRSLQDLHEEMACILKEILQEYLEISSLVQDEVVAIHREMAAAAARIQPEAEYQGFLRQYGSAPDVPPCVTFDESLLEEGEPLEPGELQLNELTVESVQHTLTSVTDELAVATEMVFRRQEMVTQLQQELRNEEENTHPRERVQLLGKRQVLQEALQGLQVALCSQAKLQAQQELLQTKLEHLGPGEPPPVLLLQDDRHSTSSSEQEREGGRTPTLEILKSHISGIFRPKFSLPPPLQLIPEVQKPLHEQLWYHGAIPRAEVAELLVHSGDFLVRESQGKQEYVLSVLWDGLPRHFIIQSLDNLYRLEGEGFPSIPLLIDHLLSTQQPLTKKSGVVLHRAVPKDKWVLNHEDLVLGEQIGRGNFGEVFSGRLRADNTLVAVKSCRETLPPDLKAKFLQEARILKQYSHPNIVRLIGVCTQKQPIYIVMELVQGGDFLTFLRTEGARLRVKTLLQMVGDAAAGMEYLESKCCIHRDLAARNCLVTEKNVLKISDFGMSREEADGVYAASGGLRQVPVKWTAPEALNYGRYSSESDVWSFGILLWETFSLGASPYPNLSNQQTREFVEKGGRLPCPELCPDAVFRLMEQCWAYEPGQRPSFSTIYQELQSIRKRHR
Chain of Jak2 (O60674 whole entry, looked up): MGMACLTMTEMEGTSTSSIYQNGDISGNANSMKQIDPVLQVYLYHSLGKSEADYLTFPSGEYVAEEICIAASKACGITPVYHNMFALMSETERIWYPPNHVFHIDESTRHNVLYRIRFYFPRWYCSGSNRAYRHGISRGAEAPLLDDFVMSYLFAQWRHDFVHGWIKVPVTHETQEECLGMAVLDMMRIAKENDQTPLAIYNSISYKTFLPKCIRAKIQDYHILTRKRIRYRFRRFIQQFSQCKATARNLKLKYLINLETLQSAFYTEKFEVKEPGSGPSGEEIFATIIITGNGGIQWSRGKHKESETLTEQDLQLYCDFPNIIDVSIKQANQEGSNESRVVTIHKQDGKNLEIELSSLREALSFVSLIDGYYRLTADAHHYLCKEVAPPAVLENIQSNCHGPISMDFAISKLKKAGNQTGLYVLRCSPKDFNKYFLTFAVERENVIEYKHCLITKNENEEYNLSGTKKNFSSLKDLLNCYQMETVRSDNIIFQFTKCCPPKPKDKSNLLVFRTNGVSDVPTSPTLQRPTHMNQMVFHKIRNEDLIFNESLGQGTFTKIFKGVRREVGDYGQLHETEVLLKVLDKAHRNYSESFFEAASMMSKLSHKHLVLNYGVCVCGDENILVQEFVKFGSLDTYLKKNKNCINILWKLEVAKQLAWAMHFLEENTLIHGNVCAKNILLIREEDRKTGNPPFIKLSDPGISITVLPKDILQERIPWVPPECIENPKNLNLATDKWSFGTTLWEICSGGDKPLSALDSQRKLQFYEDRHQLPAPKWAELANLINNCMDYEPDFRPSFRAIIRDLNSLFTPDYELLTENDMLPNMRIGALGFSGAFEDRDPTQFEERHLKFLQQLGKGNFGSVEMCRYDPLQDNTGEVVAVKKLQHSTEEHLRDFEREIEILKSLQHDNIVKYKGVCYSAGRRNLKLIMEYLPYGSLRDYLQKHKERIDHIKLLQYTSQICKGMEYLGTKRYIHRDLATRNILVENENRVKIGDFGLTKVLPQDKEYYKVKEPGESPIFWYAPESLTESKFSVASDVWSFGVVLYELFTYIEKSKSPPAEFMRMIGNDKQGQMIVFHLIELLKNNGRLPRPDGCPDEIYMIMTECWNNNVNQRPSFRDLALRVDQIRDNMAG
Chain of FGFR3 (P22607 whole entry, looked up): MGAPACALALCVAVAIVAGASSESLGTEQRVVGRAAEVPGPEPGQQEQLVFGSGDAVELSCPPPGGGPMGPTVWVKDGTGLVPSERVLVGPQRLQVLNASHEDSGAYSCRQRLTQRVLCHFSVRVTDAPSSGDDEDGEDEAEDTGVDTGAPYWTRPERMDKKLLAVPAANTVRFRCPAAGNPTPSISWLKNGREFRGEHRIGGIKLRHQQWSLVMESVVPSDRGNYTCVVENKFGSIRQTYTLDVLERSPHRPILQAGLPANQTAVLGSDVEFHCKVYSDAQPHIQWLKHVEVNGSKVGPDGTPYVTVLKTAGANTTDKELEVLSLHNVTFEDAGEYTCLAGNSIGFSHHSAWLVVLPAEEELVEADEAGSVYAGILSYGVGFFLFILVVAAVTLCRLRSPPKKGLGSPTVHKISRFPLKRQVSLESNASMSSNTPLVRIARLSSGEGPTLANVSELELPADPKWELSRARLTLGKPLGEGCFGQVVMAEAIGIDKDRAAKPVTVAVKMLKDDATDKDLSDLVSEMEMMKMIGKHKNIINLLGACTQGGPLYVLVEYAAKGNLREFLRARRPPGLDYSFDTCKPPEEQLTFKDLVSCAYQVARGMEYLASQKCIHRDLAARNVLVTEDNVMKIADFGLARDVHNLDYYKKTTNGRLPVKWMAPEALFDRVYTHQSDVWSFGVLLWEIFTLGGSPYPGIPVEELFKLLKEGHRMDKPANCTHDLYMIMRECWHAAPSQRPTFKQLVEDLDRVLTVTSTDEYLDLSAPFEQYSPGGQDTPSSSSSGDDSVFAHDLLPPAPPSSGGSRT
Chain of MERTK (Q12866 whole entry, looked up): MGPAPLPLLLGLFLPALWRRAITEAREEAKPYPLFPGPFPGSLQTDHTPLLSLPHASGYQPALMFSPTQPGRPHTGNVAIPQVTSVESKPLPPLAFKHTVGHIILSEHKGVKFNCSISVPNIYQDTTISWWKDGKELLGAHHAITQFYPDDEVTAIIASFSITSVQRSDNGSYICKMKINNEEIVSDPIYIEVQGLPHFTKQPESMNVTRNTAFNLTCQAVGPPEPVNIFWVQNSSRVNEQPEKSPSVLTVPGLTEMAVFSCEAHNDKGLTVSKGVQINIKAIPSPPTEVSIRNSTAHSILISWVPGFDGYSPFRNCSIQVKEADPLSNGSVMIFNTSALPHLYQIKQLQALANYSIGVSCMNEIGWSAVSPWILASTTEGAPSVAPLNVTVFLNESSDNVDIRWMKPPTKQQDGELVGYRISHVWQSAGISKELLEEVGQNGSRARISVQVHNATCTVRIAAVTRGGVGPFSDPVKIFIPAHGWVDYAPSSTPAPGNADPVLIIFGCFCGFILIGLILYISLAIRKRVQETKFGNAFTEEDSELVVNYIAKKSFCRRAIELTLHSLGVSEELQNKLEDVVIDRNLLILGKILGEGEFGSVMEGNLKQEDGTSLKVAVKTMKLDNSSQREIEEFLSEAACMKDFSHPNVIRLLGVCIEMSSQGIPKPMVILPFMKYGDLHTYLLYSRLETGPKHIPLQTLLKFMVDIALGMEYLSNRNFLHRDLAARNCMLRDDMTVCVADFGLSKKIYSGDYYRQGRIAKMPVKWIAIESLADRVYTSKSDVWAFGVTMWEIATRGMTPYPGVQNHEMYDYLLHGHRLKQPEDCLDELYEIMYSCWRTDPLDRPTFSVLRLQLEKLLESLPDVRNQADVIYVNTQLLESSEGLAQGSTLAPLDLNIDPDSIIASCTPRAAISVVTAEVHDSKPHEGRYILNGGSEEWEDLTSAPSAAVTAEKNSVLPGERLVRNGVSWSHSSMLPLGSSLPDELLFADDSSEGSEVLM

| Sequence | SH2 binding enrichment (SHP2-C SH2) | SH2 binding enrichment (Grb2 SH2) | SH2 binding enrichment (c-Src SH2) | phosphorylation enrichment (EPHB2) | phosphorylation enrichment (c-Src) | phosphorylation enrichment (AncSZ) | phosphorylation enrichment (EPHB1) | phosphorylation enrichment (Fyn) | phosphorylation enrichment (Hck) | phosphorylation enrichment (Fes) | phosphorylation enrichment (Fer (mouse)) | phosphorylation enrichment (MERTK) | phosphorylation enrichment (FGFR3) | phosphorylation enrichment (FGFR1) | phosphorylation enrichment (c-Abl (mouse)) | phosphorylation enrichment (Jak2) |
| --- | --- | --- | --- | --- | --- | --- | --- | --- | --- | --- | --- | --- | --- | --- | --- | --- |
| KSLFHHRQYSA [CPS1_Y1491_Y1491H] | 0.613 | 0.618 | 0.341 | 0.491 | 0.478 | 0.573 | 1.04 | 0.519 | 0.488 | 0.547 | 0.439 | 0.472 | 0.412 | 0.563 | 0.504 | 0.555 |
| KSMSVYCTPNK [ATP2A2_Y497] | 0.686 | 1.08 | 0.948 | 0.702 | 0.455 | 1.13 | 0.696 | 0.699 | 1 | 0.94 | 0.509 | 0.653 | 0.632 | 0.473 | 1.38 | 0.581 |
| KWTVDYLGQVG [TYW5_Y48_S50G] | 0.918 | 1.04 | 0.494 | 0.444 | 0.392 | 0.913 | 0.515 | 0.46 | 0.487 | 0.774 | 0.405 | 0.336 | 0.602 | 0.531 | 0.621 | 0.845 |
| KYVVVYFRETD [IL17RB_Y447_I451T] | 6.88 | 2.28 | 1.7 | 0.554 | 0.491 | 1.36 | 0.757 | 0.43 | 0.579 | 1.34 | 0.564 | 0.445 | 0.708 | 0.459 | 0.762 | 1.27 |
| LEAVSYSSPYA [RNLS_Y190_R193P] | 1.84 | 0.826 | 2.86 | 0.936 | 1.12 | 1.81 | 0.818 | 0.864 | 1.07 | 1.03 | 0.714 | 0.627 | 0.987 | 0.697 | 2.02 | 1.51 |
| LENSTYQFIRV [CRB1_Y760_YF] | 0.622 | 0.607 | 0.546 | 1.75 | 3.85 | 1.36 | 5.79 | 2.87 | 7.9 | 1.52 | 15.8 | 4.96 | 3.21 | 5.63 | 1.18 | 0.946 |
| LENSTYQYICV [CRB1_Y760_R764C] | 0.526 | 0.715 | 0.522 | 8.2 | 3.5 | 3.88 | 11.9 | 4.96 | 5.89 | 2.41 | 15.4 | 6.83 | 8.35 | 14.1 | 1.61 | 2.13 |
| LERFIYNREEL [HLA-DPB1_Y59_F64L_YF] | 0.85 | 1.2 | 0.703 | 0.734 | 2.42 | 1.5 | 0.698 | 1.19 | 1.5 | 1.3 | 0.669 | 0.694 | 0.75 | 0.666 | 1.11 | 1.54 |
| LERFIYNRQEF [HLA-DPB1_Y59_E62Q_YF] | 0.783 | 1.03 | 0.566 | 0.551 | 0.859 | 0.766 | 0.436 | 0.551 | 0.77 | 0.87 | 0.427 | 0.357 | 0.532 | 0.491 | 0.464 | 0.629 |
| LERYIYNPEEF [HLA-DPB1_Y59_R61P] | 0.851 | 0.866 | 0.677 | 0.965 | 3.71 | 1.48 | 0.783 | 2.16 | 1.56 | 1.74 | 0.85 | 0.682 | 0.902 | 0.875 | 1.32 | 2.66 |
| LESETYRRLLD [KRT12_Y429_I426S] | 0.911 | 0.915 | 0.429 | 0.836 | 0.517 | 1.44 | 0.75 | 0.684 | 0.697 | 1.66 | 0.708 | 0.664 | 1.02 | 0.784 | 0.778 | 1.07 |
| LESILYESSVV [TRPV4_Y91_T89I] | 0.732 | 0.86 | 0.613 | 0.719 | 1.14 | 1.65 | 0.607 | 1.22 | 1.65 | 1.39 | 7.52 | 0.678 | 0.825 | 0.725 | 1.01 | 1.23 |
| LFDPDFMKVIL [CYP4A22_Y104_Y104F_YF] | 0.543 | 1.06 | 0.463 | 0.908 | 1.23 | 2.44 | 1.63 | 0.899 | 1.12 | 2.6 | 0.999 | 1.06 | 1.86 | 1.15 | 2.1 | 2.74 |
| LFSINYLHFGE [KDM4C_Y201_YF] | 2.78 | 1.38 | 1.27 | 0.661 | 0.528 | 1.35 | 1.3 | 0.624 | 0.65 | 1.6 | 0.822 | 0.634 | 0.899 | 0.902 | 0.953 | 1.29 |
| LFVDVYGPSVP [NUBPL_Y109_D105Y_YF] | 0.684 | 0.921 | 0.42 | 0.545 | 1.47 | 1.23 | 0.576 | 1.16 | 1.5 | 1.34 | 0.748 | 0.355 | 0.709 | 0.482 | 0.717 | 1.17 |
| LGRGKYSEVFE [CSNK2A1_Y50] | 0.701 | 0.739 | 1.44 | 0.798 | 0.704 | 1.01 | 0.514 | 1.19 | 0.768 | 1.19 | 0.478 | 0.753 | 0.805 | 0.685 | 0.924 | 0.929 |
| LHAAAYQNALA [UQCRC2_Y182_R183Q] | 0.611 | 8.54 | 0.837 | 0.423 | 0.393 | 1.01 | 0.433 | 0.474 | 0.45 | 0.715 | 0.427 | 0.4 | 0.476 | 0.512 | 0.495 | 0.646 |
| LHVGFYESDVM [A2M_Y708_R704H] | 0.721 | 0.95 | 4.23 | 1.14 | 0.676 | 1.18 | 1.41 | 0.691 | 0.743 | 1.58 | 1.9 | 1.15 | 1.21 | 0.889 | 0.761 | 1.34 |
| LKRIAYFLCLR [LGI1_Y21_L26R] | 0.652 | 0.841 | 0.583 | 0.413 | 0.341 | 0.997 | 0.372 | 0.399 | 0.37 | 1.06 | 0.435 | 0.359 | 0.601 | 0.365 | 0.708 | 0.949 |
| LLEGKYEWQEV [CDKN1B_Y74_P69L] | 0.464 | 0.801 | 3.24 | 1.43 | 1.01 | 2 | 1.45 | 0.908 | 0.889 | 2.74 | 1.75 | 0.964 | 1.48 | 1.14 | 1.79 | 3 |
| LLLLFCVVRFC [MPZ_Y177_Y177C_YF] | 1.77 | 1.47 | 0.857 | 0.56 | 0.719 | 1.01 | 0.803 | 0.712 | 0.75 | 1.12 | 1.16 | 0.718 | 1.56 | 0.973 | 0.933 | 0.607 |
| LNCAGYCDALE [MTUS1_Y151] | 0.58 | 0.754 | 7.11 | 0.578 | 0.683 | 1.19 | 0.621 | 0.514 | 0.511 | 1.3 | 0.599 | 0.617 | 0.906 | 0.55 | 0.917 | 1.32 |

The next lines start with results.

| SH2 binding enrichment (SHP2-C SH2) | SH2 binding enrichment (Grb2 SH2) | SH2 binding enrichment (c-Src SH2) | Sequence | phosphorylation enrichment (EPHB2) | phosphorylation enrichment (c-Src) | phosphorylation enrichment (AncSZ) | phosphorylation enrichment (EPHB1) | phosphorylation enrichment (Fyn) | phosphorylation enrichment (Hck) | phosphorylation enrichment (Fes) | phosphorylation enrichment (Fer (mouse)) | phosphorylation enrichment (MERTK) | phosphorylation enrichment (FGFR3) | phosphorylation enrichment (FGFR1) | phosphorylation enrichment (c-Abl (mouse)) | phosphorylation enrichment (Jak2) |
| --- | --- | --- | --- | --- | --- | --- | --- | --- | --- | --- | --- | --- | --- | --- | --- | --- |
| 0.719 | 0.742 | 0.675 | LADKPYTFEFF [FXN_Y118_D122Y_YF] | 0.683 | 2.87 | 1.78 | 0.764 | 1.47 | 0.644 | 1.82 | 1.25 | 1.22 | 0.952 | 0.649 | 1.19 | 1.58 |
| 0.838 | 0.681 | 0.409 | LDPDSYNKFEN [FOXC1_Y159_M161K] | 0.656 | 1.02 | 1.54 | 0.758 | 0.665 | 0.698 | 1.69 | 0.483 | 0.802 | 0.97 | 0.765 | 1.25 | 1.52 |
| 0.921 | 0.785 | 0.767 | LDTFIYDAAVL [GRIN2A_Y730_A727T] | 2.05 | 7.94 | 1.97 | 1.68 | 7.61 | 8.1 | 1.65 | 16.9 | 2.94 | 0.991 | 0.827 | 7.38 | 1.4 |
| 0.518 | 0.978 | 0.569 | LENQTYFKSFE [AKAP9_Y2482] | 1.24 | 0.579 | 1.59 | 1.24 | 1.08 | 1.22 | 1.33 | 0.67 | 0.81 | 0.903 | 0.956 | 0.872 | 1.13 |
| 0.95 | 1.48 | 0.936 | LFRFGYANTSE [SI_Y1233_C1229Y_YF] | 0.585 | 0.376 | 0.696 | 0.378 | 0.411 | 0.51 | 0.937 | 0.433 | 0.315 | 0.497 | 0.619 | 0.847 | 0.807 |
| 1.55 | 1.53 | 1.13 | LGKLIYPVGFW [NTHL1_Y177] | 1.02 | 1.35 | 1.6 | 0.999 | 0.752 | 0.746 | 1.87 | 0.557 | 0.634 | 1.13 | 0.816 | 1.27 | 1.67 |
| 0.547 | 0.65 | 0.337 | LGRGKSSEVFE [CSNK2A1_Y50_Y50S] | 0.605 | 0.653 | 0.923 | 0.341 | 0.646 | 0.517 | 1.01 | 0.593 | 0.639 | 0.661 | 0.438 | 0.835 | 0.996 |
| 0.767 | 0.881 | 0.748 | LGRTRYQHVTG [MIPEP_Y510] | 0.393 | 0.445 | 0.694 | 0.439 | 0.488 | 0.309 | 0.723 | 0.377 | 0.499 | 0.428 | 0.477 | 0.564 | 0.559 |
| 1.92 | 1.95 | 1.86 | LHRAHYDLHHT [AHSG_Y314_R317H] | 0.674 | 0.505 | 0.836 | 0.69 | 0.637 | 0.553 | 1.01 | 1.36 | 0.496 | 0.857 | 0.511 | 0.781 | 0.646 |
| 0.557 | 0.997 | 0.431 | LIGRRCDDPEV [HSPA9_Y128_Y128C] | 0.623 | 0.722 | 1.76 | 0.782 | 1.12 | 0.575 | 1.51 | 0.666 | 0.582 | 1.03 | 0.697 | 1 | 1.41 |
| 0.787 | 0.9 | 0.484 | LLANAYIYVVQ [L1CAM_Y418] | 0.69 | 0.602 | 1.29 | 0.847 | 0.645 | 0.687 | 1.52 | 0.588 | 0.516 | 1.01 | 0.679 | 0.983 | 1.43 |
